According to the supplement of paper PMC10567573:

B1: C8orf76 (parent)
chain: KLAEAYLNLGPALSAALASSQKQH

Variants of: B1
Assay: protein stability index of a GFP-peptide fusion (GPS, HEK-293T) (PSI 1-6); higher = more stable
Conditions: c terminus: a fixed tail appended
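Further: lentivirally expressed fusions sorted by FACS into six bins by GFP to DsRed ratio, PSI derived from sequencing read proportions per bin multiplied by bin number.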

Protein stability index: each site, then its substitutions
H24: N 2.29 | Q 3.32 | Y 2.56 | R 3 | S 2.83 | C 3.67 | F 3.48 | K 1.76 | L 2.44 | W 1.9 | T 2.79 | V 3.61 | P 2.62
A16: N 1.95 | F 3.07 | Y 2.95 | I 4.08 | W 1.09 | R 2.43 | G 2.4 | E 1.82 | V 2.05 | K 1.97 | S 2.41 | H 2.86
Q21: A 4.28 | S 2.38 | K 2.1 | D 1.97 | L 1.8 | T 3.01 | G 3.38 | R 3.07 | E 1.78 | V 2.99 | W 2.31 | N 3.31 | F 2.97 | H 2.42 | Y 4.14
Y6: D 3.94 | T 1.85 | A 1.54 | S 3.04 | E 3.65 | Q 2.73 | I 2.39 | P 3.59 | W 2.08 | V 3.81 | C 2.32 | R 2.98
S19: R 2.74 | F 2.5 | T 3.75 | Y 2.84 | I 3.22 | Q 2.43 | A 4.1 | E 2.95 | V 2.64 | L 2.35 | G 3.14 | K 2.51 | M 3.29
A15: K 2.27 | P 2.36 | T 2.15 | S 1.54 | H 2.63 | W 2.71 | M 2.94 | Y 2.09 | Q 2.98 | C 2.3 | G 2.03 | L 3.15 | V 2.31 | N 1.81
E4: N 2.35 | K 1.43 | M 4.83 | P 2.2 | Q 2.63 | W 3.01 | T 3.2 | G 2.43 | A 1.83 | I 2.97 | V 1.39 | R 1.6 | C 1.57
A18: N 1.19 | G 2.29 | D 2.22 | S 1.99 | I 2.4 | Y 2.37 | V 2.36 | R 2.67 | L 3.18 | K 2.02 | Q 1.9 | E 1.95
G10: W 1.61 | Q 2.21 | H 1.96 | V 2.73 | S 2.51 | K 2.26 | A 1.92 | C 2.66 | P 2.58 | F 2.51 | T 2.12 | I 3.16 | Y 1.86
S14: R 2.06 | A 1.47 | Q 2.93 | D 2.06 | K 1.3 | M 3.24 | E 1.23 | T 3.75 | H 2.18 | G 2.12 | P 1.81 | V 4.08 | N 2.86 | F 4.03
N8: W 3.78 | L 2.33 | E 2.42 | G 2.5 | Q 1.73 | M 2.15 | Y 2.59 | H 2.16 | A 4.23 | C 3.63 | S 3.78 | T 3.12 | K 1.33 | P 2.02 | F 2.74
L9: Y 2.06 | P 2.75 | N 2.89 | M 2.36 | A 4.3 | S 1.96 | T 2.62 | D 3.5 | F 2.56 | E 2.36 | K 3.11 | C 1.36 | V 1.91 | Q 3.08 | R 2.61
L2: N 2.61 | V 1.33 | T 2.8 | G 2.36 | H 2.66 | K 3.38 | P 3.15 | M 1.68 | F 1.11 | W 2.89 | E 3.62 | A 2.15 | C 2.03 | Q 2.57 | R 2.38
K1: L 5.14 | P 1.19 | C 4.61 | Q 2.44 | H 1.97 | V 2.25 | N 3.67 | E 2.64 | I 2.14 | W 3.61 | S 2.08 | D 2.06 | T 2.78 | A 2.64
P11: F 2.45 | Q 2.28 | K 1.94 | M 2.9 | R 3.7 | A 2.16 | C 2.49 | H 1.84 | Y 1.26 | I 2.53 | S 3.4 | D 2.26
A3: N 2.12 | D 3.08 | W 3.22 | F 3.79 | V 3.08 | T 1.52 | H 2.29 | S 1.82 | P 2.48 | M 1.43 | I 2.07 | R 2.24 | Y 3.71 | Q 1.72 | L 3.56 | G 2.22 | C 3.15
S20: I 4.43 | Y 2.2 | N 2.26 | D 1.48 | A 3.74 | W 3.33 | R 2.13 | G 2.46 | T 1.9 | L 3.21 | H 3.47 | M 2.44 | V 3.17 | C 3.5
K22: Y 3.64 | C 3.44 | D 1.69 | W 4.77 | S 3.07 | T 4.43 | A 2.91 | G 3.43 | I 3.1 | M 2.41 | F 2.69 | N 1.83 | R 4.21
A12: C 1.82 | L 2.59 | S 2.35 | K 2.32 | Y 2.82 | D 2.61 | R 2.29 | G 1.6 | T 1.26 | V 3.4 | W 1.59 | H 2.14 | Q 1.73 | F 2.73 | P 2.2 | E 1.96 | M 2.5 | N 1.68
L7: G 1.67 | M 1.53 | Q 1.54 | N 1.94 | E 2.65 | D 2.23 | H 1.94 | F 2.53 | T 1.7 | Y 2.07 | A 1.6 | V 3.1 | P 2.23 | K 1.62
L17: P 2.76 | G 1.95 | H 2.17 | Q 2.17 | C 1.6 | S 2.03 | N 2.56 | Y 1.97 | K 1.81 | A 1.65 | F 2.21 | M 2.69 | E 2.26 | I 2.16
Q23: Y 2.51 | P 2.57 | C 2.22 | K 2.07 | E 3.74 | N 1.99 | M 2.85 | I 2.73 | D 1.97 | W 2.43 | S 2.91 | H 2.74 | R 2.04 | T 2.83
L13: S 2.54 | D 3.15 | M 1.8 | N 2.31 | G 2.65 | W 2.06 | A 1.99 | E 3.29 | Q 2.76 | P 2.82 | I 3.23 | K 2.36
A5: L 4.98 | H 2.04 | T 2.93 | K 1.82 | C 4.48 | N 2.07 | G 2.03 | F 3.28 | M 3.68 | Q 2.33 | D 2.44 | P 2.76 | S 1.24 | W 1.58 | V 1.89 | R 2.27
